Non-standard residues stand in square brackets, D forms with d. No end group written: not given here. pS = N[C@@H](COP(=O)(O)O)C(=O)O; MBP = not defined here
Biological target: T1, GST-CHC 331–542 fragment (UniProt Q00610 331-542)
T1 sequence: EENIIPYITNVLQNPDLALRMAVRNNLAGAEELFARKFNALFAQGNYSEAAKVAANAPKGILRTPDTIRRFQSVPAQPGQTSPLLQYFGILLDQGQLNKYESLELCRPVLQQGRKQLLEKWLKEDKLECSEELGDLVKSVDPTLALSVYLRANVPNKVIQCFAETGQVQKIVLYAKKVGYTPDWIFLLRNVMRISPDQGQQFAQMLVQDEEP
Test: pull-down

binding result: binds
B1: MBP-TACC3 522–577, phosphorylated by aurora A (domain or fragment)
chain: {MBP}-EESFRDPAEVLGTGAEVDYLEQFGTSSFKESALRKQ[pS]LYLKFDPLLRDSPGRPVPV
modifications: reading uncertain

Reference: paper PMC2894451 (The Journal of Cell Biology, 2010)
